Changes are numbered by the printed parent chain. Names may count otherwise.
What was measured:
[1] = target: the molecule itself; assay: blue-native gel, PNPASE immunoblot (self-assembly)
Description: Listed are the in vitro effects of mutations on 3′ polymerase and RNA degrading activities as reported by Portnoy et al. (2008) RNA 14: 297-309. […] Radiolabeled RNase P RNA was incubated with isolated yeast mitochondria expressing an empty vector or the listed PNPASE constructs. […] A PORIN immunoblot confirms the co-localization of PNPASE WT and mutants in yeast mitochondria. The assembly state of WT and point mutant PNPASE was determined by solubilization with 1% digitonin and separation on a 6-16% BN gel, followed by PNPASE immunoblot. FIG. 11B (upper) show gels of WT and S484A PNPASE purified from yeast mitochondria using immunoprecipitation. FIG. 11B (lower) show gels of WT or S484A mutant PNPASE was incubated with radiolabeled RNase P RNA for 10 min at 25° C. to assess degradation activity. The asterisk marks degradation products. FIG. 11 C (left) is a gel showing the stability of RNase P RNA imported into mitochondria.
The assembly state of PNPASE was also investigated. […] Soluble proteins were separated on a 6-16% BN gel and PNPASE was detected by immunoblot. […] The PNPASE-HisPC were solubilized with 1% digitonin (Dig) or 0.5% dodecylmaltoside (DDM) and the soluble proteins were separated on a 6-16% BN gel and detected by immunoblot.

[2] = target: the molecule itself; assay: 1% digitonin, 6-16% blue-native gel, PNPASE immunoblot (self-assembly)
Description: Radiolabeled RNase P RNA was incubated with isolated yeast mitochondria expressing an empty vector or the listed PNPASE constructs. […] A PORIN immunoblot confirms the co-localization of PNPASE WT and mutants in yeast mitochondria. The assembly state of WT and point mutant PNPASE was determined by solubilization with 1% digitonin and separation on a 6-16% BN gel, followed by PNPASE immunoblot. FIG. 11B (upper) show gels of WT and S484A PNPASE purified from yeast mitochondria using immunoprecipitation. FIG. 11B (lower) show gels of WT or S484A mutant PNPASE was incubated with radiolabeled RNase P RNA for 10 min at 25° C. to assess degradation activity. The asterisk marks degradation products. FIG. 11 C (left) is a gel showing the stability of RNase P RNA imported into mitochondria.
To determine whether the RNA import or stabilization activity of PNPASE was separable from its RNA processing activities, RNase P RNA import was studied when different PNPASE mutants were expressed in yeast mitochondria (FIG. 11A). The point mutants generated and tested were based on prior studies (Portnoy et al. (2008) RNA 14: 297-309). Mutants D135G and S484A lacked poly-A polymerase and RNA degradation activities in vitro. […] Of the four mutants, PNPASE S484A and R445E/R446E supported the import or stabilization of RNase P RNA, whereas mutants D135G and D544G were defective in this function (FIG. 11A). Based on the prior studies of others, it was expected that mutant D135G would fail to form a trimeric complex from prior studies (Portnoy et al. (2008) RNA 14: 297-309).

B1: human PNPASE (polynucleotide phosphorylase) expressed in yeast mitochondria (enzyme, UniProt Q8TCS8 46-783, looked up)
chain: AVAVDLGNRKLEISSGKLARFADGSAVVQSGDTAVMVTAVSKTKPSPSQFMPLVVDYRQKAAAAGRIPTNYLRREIGTSDKEILTSRIIDRSIRPLFPAGYFYDTQVLCNLLAVDGVNEPDVLAINGASVALSLSDIPWNGPVGAVRIGIIDGEYVVNPTRKEMSSSTLNLVVAGAPKSQIVMLEASAENILQQDFCHAIKVGVKYTQQIIQGIQQLVKETGVTKRTPQKLFTPSPEIVKYTHKLAMERLYAVFTDYEHDKVSRDEAVNKIRLDTEEQLKEKFPEADPYEIIESFNVVAKEVFRSIVLNEYKRCDGRDLTSLRNVSCEVDMFKTLHGSALFQRGQTQVLCTVTFDSLESGIKSDQVITAINGIKDKNFMLHYEFPPYATNEIGKVTGLNRRELGHGALAEKALYPVIPRDFPFTIRVTSEVLESNGSSSMASACGGSLALMDSGVPISSAVAGVAIGLVTKTDPEKGEIEDYRLLTDILGIEDYNGDMDFKIAGTNKGITALQADIKLPGIPIKIVMEAIQQASVAKKEILQIMNKTISKPRASRKENGPVVETVQVPLSKRAKFVGPGGYNLKKLQAETGVTISQVDEETFSVFAPTPSAMHEARDFITEICKDDQEQQLEFGAVYTATITEIRDTGVMVKLYPNMTAVLLHNTQLDQRKIKHPTALGLEVGQEIQVKYFGRDPADGRMRLSRKVLQSPATTVVRTLNDRSSIVMGEPISQSSSNSQ
notes: Homo-oligomer of about 240 kDa on blue-native gels; also called hPNP; WT PNPASE
binding result [1]: binds

B2: human PNPASE double mutant R445E/R446E (enzyme, UniProt Q8TCS8 46-783, looked up)
chain: B1 chain with R400E, R401E
notes: Point mutants are based on Portnoy et al. (2008); The numbering scheme is not further defined
binding result [2]: binds

B3: human PNPASE mutant D544G (enzyme, UniProt Q8TCS8 46-783, looked up)
chain: B1 chain with D499G
notes: as for B2
binding result [2]: binds

B4: human PNPASE mutant D135G (enzyme, UniProt Q8TCS8 46-783, looked up)
chain: B1 chain with D90G
notes: as for B2
binding result [1]: binds

B5: human PNPASE mutant S484A (enzyme, UniProt Q8TCS8 46-783, looked up)
chain: B1 chain with S439A
notes: as for B2
binding result [2]: binds

Reference: patent US20120283317A1 (University of California, published 2012)
